Test results: publication PMC11052181, “The Post-Transcriptional Regulatory Protein CsrA Amplifies Its Targetome through Direct Interactions with Stress-Response Regulatory Hubs: The EvgA and AcnA Cases”
Substitutions are numbered along the chain they refer to.

B1: acnA leader WT (T7-acnA-WT) (structured_RNA)
RNA: GGGAUAAUUCACCCUGAAGAGAAUCAGGGCUUCGCAACCCUGUCAUUAAGGAGGAGCUAUGUCGUCAACCCUACGAGAAGCCAGUAAGGACACGUUGCAGGCCAAAGAUAAAACUUACCACUACUACAGCCUGCCGCUUGCUGCUAAAUCACUGGGCG
B2: acnA PBS-I mutant (mut1, GGAGGA to CCACCA) (structured_RNA)
RNA: B1 RNA with G50C, G51C, G53C, G54C, C63G
B3: acnA PBS-I & PBS-III double mutant (dm-1&3) (structured_RNA)
RNA: B1 RNA with G50C, G51C, G53C, G54C, C63G, A104U, G107C, A108U
B4: acnA PBS-III mutant (mut3, AAAGAU to UAACUU) (structured_RNA)
RNA: B1 RNA with A104U, G107C, A108U
B5: evgA leader WT (T7-evgA-WT) (structured_RNA)
RNA: GGGAUAAUUACUUGUCGAAUUAUCUUAAAGGAAGCUCAGAUUUUCUUAUUUUUAUUGAGAAAAUGAGAUGACGCCUUAUGUCUGUAUUACUACAGGGAGAAGGGAGAUGCUUCAUUGCAAAGGGAAUAAUCUAUGAACGCAAUAAUUAUUGAUGACCAUCCUCUUGCUAUCGCAGCAAUUCGUAAUUUAUUGAUCAAAAACGAUAUUGAAAUCUUAGCAGAGUUGACUGAAG
B6: evgA GGA4 mutant (AGGGAA to AAGGGG) (structured_RNA)
RNA: B5 RNA with G122A, A125G, A126G
B7: evgA GGA2 mutant (GGA to AGA) (structured_RNA)
RNA: B5 RNA with G96A
B8: evgA no GGAs mutant (structured_RNA)
RNA: B5 RNA with U25G, G30C, C74G, G96A, G103C, G122A, A125G, A126G
B9: evgA all pred. sites mutant (PBS-I + PBS-II) (structured_RNA)
RNA: B5 RNA with A22U, U25G, G30C, G65A, G70C, G139C, A141U

Experiments:
Details in all cases: protein: recombinant; chain copies: 2; label: 5'-32P
CsrA [1] = target: T1, CsrA (Escherichia coli, UniProt P69913 1-61); experiment: EMSA; excess yeast total RNA; 0.5 nM 32P-RNA, 0-300 nM CsrA, 30 min, excess yeast total RNA; 10% native PAGE, 0.5x TBE, 4 C, 170 V; binding buffer, pH and temperature not stated (as in refs)
T1 sequence (P69913 whole entry): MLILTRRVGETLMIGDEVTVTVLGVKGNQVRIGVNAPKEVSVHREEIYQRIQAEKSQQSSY

CsrA [2] = target: T1, CsrA; experiment: as above; remark: listed apart in the source
CsrA [3] = target: T1, CsrA; experiment: as above; remark: listed apart in the source
CsrA [4] = target: T1, CsrA; experiment: EMSA; excess yeast total RNA; reduced curve amplitude; 0.5 nM 32P-RNA, 0-300 nM CsrA, 30 min, excess yeast total RNA; 10% native PAGE, 0.5x TBE, 4 C, 170 V; binding buffer, pH and temperature not stated (as in refs)

| Binder | binding signal (CsrA [2]) | binding signal (CsrA [3]) | further results |
| --- | --- | --- | --- |
| B1 |  |  | Kd (CsrA [1]): ~90.9 nM |
| B2 | ~1.7 fold increase in Kd vs WT |  |  |
| B3 | ~2 fold increase in Kd vs WT |  |  |
| B4 | ~1.6 fold increase in Kd vs WT |  |  |
| B5 |  |  | Kd (CsrA [1]): ~83.7 nM |
| B6 |  | ~2 fold increase in Kd vs WT |  |
| B7 |  | ~1.6 fold increase in Kd vs WT |  |
| B8 |  |  | binding signal (CsrA [4]): ~2.8 fold increase in Kd vs WT |
| B9 |  | ~1.2 fold increase in Kd vs WT |  |
